Drawing on patent publication US6403637B1, “Methods of modulating matrix metalloproteinase activity and uses thereof” (priority 1999, dated 2002), this text covers Specific binding for 1 molecule.

For the test, the system named is UMR 106-01 rat osteosarcoma cells. The experiment in a line: Binding of 125I-labeled proteinases to UMR 106-01 cells. The conditions noted are these: 125I-labeled ligand 8 nM; means ± SEM for triplicate wells.

B1: Human MMP-2: human 72 kDa gelatinase (MMP-2) (protein, UniProt P08253 110-660, looked up)
72 kDa type IV collagenase: YNFFPRKPKWDKNQITYRIIGYTPDLDPETVDDAFARAFQVWSDVTPLRFSRIHDGEADIMINFGRWEHGDGYPFDGKDGLLAHAFAPGTGVGGDSHFDDDELWTLGEGQVVRVKYGNADGEYCKFPFLFNGKEYNSCTDTGRSDGFLWCSTTYNFEKDGKYGFCPHEALFTMGGNAEGQPCKFPFRFQGTSYDSCTTEGRTDGYRWCGTTEDYDRDKKYGFCPETAMSTVGGNSEGAPCVFPFTFLGNKYESCTSAGRSDGKMWCATTANYDDDRKWGFCPDQGYSLFLVAAHEFGHAMGLEHSQDPGALMAPIYTYTKNFRLSQDDIKGIQELYGASPDIDLGTGPTPTLGPVTPEICKQDIVFDGIAQIRGEIFFFKDRFIWRTVTPRDKPMGPLLVATFWPELPEKIDAVYEAPQEEKAVFFAGNEYWIYSASTLERGYPKPLTSLGLPPDVQRVDAAFNWSKNKKTYIFAGDKFWRYNEVKKKMDPGFPKLIADAWNAIPDNLDAVVDLQGGGHSYFFKGAYYLKLENQSLKSVKFGSIKSDWLGC
Turning to B1, the Specific binding was 0.0 ± 0.0 fmol/2.6 × 10^5 cells.
